Measurements reported in paper PMC4686829 (Nature Communications, 2015).

B1: 65C6 Fab (Fab, V domains shown)
VH: EVQLVQSGAEVKKPGESLRISCKGFAYSSTYFWISWVRQMPGKGLEWMGRIDPTDSYINYSPSFQGHVTISVDRSISTVYLQWSSLKASDTAMYYCAYHRRGHFYGSGSAWDWFESWGQGTLVTVSS
VL: EIVLTQSPLTLSVSPGERATLSCRASQSVSSNLAWYQQMPGQAPRLLIYGASTRATGIPARLSGSASGTEFTLTISSLQSEDFAVYYCQQYNNWPYTFGQGTKLEIK
B2: 65C6, full-length human IgG1 (antibody, V domains shown)
VH: B1 VH
VL: B1 VL
notes: IgG1; source: 293 T cells, transient transfection, purified (Protein A agarose)
B3: 100F4, full-length human IgG1 (antibody, V domains shown)
VH: QLQLQESGLGLVKPSETLSLTCTVSGDSVSSGSYYWSWLRQPPGKGLEWIGNMHGSGHTNYNPSLKSRVTITPDTSKNHFSLRLSSVTAADTAVYYCARALLTTVTTFEYWGQGTLVTVSS
VL: QSALTQPPSVSGAPGQRVTIPCTGGSSNIGAGYSVHWYQQLPGTAPKLLIYGSNSRPSGVPDRFSGSKSGTSASLAITGLRPEDEADYYCQSYDSSLSGSQVFGAGTRVTVL
notes: as for B2
B4: AVFluIgG03 Fab (Fab, V domains shown)
VH: EVQLLESGGGLVQPGGSLRVSCTNSGFTFSNYAMSWVRQAPGKGLEWVSAISGNGGSGTYYADSVKGRFTISRDNSKNTMYLQMNSLRAEDTAVYYCVRDDSYDGGGHYGLHNWFDSWGQGTLVTVSS
VL: SVLTQPPSVSGAPGQRVTISCTGSSSNIGAGYDVHWYQQLPGTAPKLLIYGNSNRPSGVPDRFSGSKSGTSASLAITGLQAEDEADYYCQSYDSSVVVFGGGTKLEIK
notes: also called Fab of AVFluIgG03; AVFulgG03
B5: AVFluIgG03, full-length human IgG1 (antibody, V domains shown)
VH: B4 VH
VL: B4 VL
notes: IgG1; also called AVFulgG03; AVFluIg03; source: 293 T cells, transient transfection, purified (Protein A agarose)

Experiments:
[1] = molecular target: globular head of H5 HA, HA1 fragment between residue D55 and E271 (F55–271) of A/Anhui/1/2005 (Influenza A virus A/Anhui/1/2005 (H5N1)); experiment: crystal structure; details: both partners purified
[2] = molecular target: HA fragment between residues I60 and G263 (F60–263) of A/Anhui/1/05, displayed on yeast (Influenza A virus A/Anhui/1/2005 (H5N1), strain); experiment: flow cytometry on cells; details: one partner purified

Row | Binder | binding result [1] | binding result [2]
1 | B1 | binds | 
2 | B2 |  | binds
3 | B3 |  | binds
4 | B4 | binds | 
5 | B5 |  | binds
